Source: the supplement of paper PMC10567573

B1: FBXO34 (parent)
chain: ASSVESTLPVLEASSWKKQVSHDF

Variants of: B1
Assay: protein stability index of a GFP-peptide fusion (GPS, HEK-293T) (PSI 1-6); higher = more stable
Conditions: c terminus: a fixed tail appended
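Note: lentivirally expressed fusions sorted by FACS into six bins by GFP to DsRed ratio, PSI derived from sequencing read proportions per bin multiplied by bin number.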

Variant	protein stability index
T7Q	4.86
T7D	3.63
T7L	2.42
T7F	2.92
T7P	2.31
T7E	2.88
T7N	3.55
T7M	2.48
T7C	3.31
T7A	2.9
T7R	2.7
T7V	2.85
T7H	3.21
T7K	2.82
T7Y	3.37
T7S	3.94
S2K	3.04
S2E	3.94
S2P	3.46
S2D	3.18
S2Q	3.09

Variant	protein stability index
S2H	2.4
S2R	2.8
S2Y	2.28
S2F	1.92
S2L	1.47
S2V	2.92
S2I	2.26
S2G	2.81
S2T	3.39
S2W	2.56
S2N	2.58
S2C	1.85
S6T	3.06
S6C	2.56
S6Y	2.48
S6L	3.18
S6N	3.83
S6I	1.7
S6D	2.46
S6M	2.36
S6H	2.42

Variant	protein stability index
S6W	3.02
S6F	1.76
S6K	2.76
S6A	3.41
S6P	2.96
S6R	2.43
V10Q	3.16
V10N	1.84
V10I	2.39
V10R	2.3
V10G	3.41
V10L	2.55
V10P	3.19
V10C	2.95
V10D	3.25
V10M	3.73
V10S	3.22
V10F	2.22
V10W	2.37
V10E	2.83
V10Y	1.76

Variant	protein stability index
V10T	2.58
V10H	2.5
V10K	2.45
V10A	3.64
P9F	2.12
P9T	1.98
P9V	2.4
P9I	1.74
P9S	2.28
P9W	2.8
P9D	3.03
P9E	1.96
P9H	1.56
P9N	2.51
P9C	3.55
P9L	2.04
P9G	1.89
P9Y	1.8
P9M	2.6
P9K	2.5
